Some results are limits rather than exact numbers.

For the experiment, the target named is sodium taurocholate cotransporting polypeptide (NTCP) (UniProt Q14973). The experiment can be described thus: cell-based or functional assay.
UniProt Q14973, sequence (Q14973 whole entry): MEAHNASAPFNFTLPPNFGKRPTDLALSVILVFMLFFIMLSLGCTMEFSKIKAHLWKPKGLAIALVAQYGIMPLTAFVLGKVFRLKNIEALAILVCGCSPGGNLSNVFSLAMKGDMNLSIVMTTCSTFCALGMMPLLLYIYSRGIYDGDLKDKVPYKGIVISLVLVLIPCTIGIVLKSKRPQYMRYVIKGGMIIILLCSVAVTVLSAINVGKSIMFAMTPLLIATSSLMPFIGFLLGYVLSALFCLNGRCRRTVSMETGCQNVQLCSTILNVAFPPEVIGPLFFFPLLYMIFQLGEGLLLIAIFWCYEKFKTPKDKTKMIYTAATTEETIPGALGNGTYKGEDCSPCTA

On to Myrcludex B (peptide), for which the DsRed-positive CreC/CIR cells by FACS, day 7 after rHBV-CreN infection (MOI=250) with MyrB was < 1% and the DsRed-positive CreC/CIR cells by flow cytometry, day 10 after rHBV-CreN infection (MOI=300) with MyrB is < 1%.

The record behind these values is patent US20200056171A1.
